Measured values published in patent US20250388702A1 (Dana-Farber, published 2025).

T1: Human HHLA2-mIgG2a fusion protein (human; mouse, UniProt Q9UM44 23-344, limits assumed)
T1 construct: also called HHLA2-Ig; HHLA2-mouse IgG2a; not shown: mutated at IgG2a L235E, E318A, K320A, K322A
T1 sequence: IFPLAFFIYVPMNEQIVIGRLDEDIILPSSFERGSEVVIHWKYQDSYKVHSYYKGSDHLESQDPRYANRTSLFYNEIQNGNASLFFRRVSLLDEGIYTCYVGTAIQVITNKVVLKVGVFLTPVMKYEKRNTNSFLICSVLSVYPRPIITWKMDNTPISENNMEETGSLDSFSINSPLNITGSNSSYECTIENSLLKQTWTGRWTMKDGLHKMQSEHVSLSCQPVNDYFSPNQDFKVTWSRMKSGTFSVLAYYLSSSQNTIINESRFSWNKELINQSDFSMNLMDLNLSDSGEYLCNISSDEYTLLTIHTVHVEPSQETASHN

B1: KIR3DL3 mAb 574.2.1D12.1.6 (antibody, IgG2a, V domains shown)
VH: QVQLQQSGAELVRPGTSVKVSCKASGYAFNNYLIEWVKQRPGQGLEWIGVINPGSGGTNDNEKFRGKATLTADTSSSTAYMQLTSLTSDDSAVYFCARGNYYGTRDWYFDVWGAGTTVTVSS
VL: QIVLTQSPAIMSASLGARVTMTCTASSSVSSSSLHWYQQKPGSSPKLWIYSISSLASGVPARFSGSGSGTSYSLTISSLEAEDAATYYCHQYHRSPPTFGGGTKLEIK
notes: Mouse hybridoma antibody, IgG2a; only variable domains given; also called AVS-3705
B2: CD86 (ligand, human, UniProt P42081 24-329, looked up)
single chain: APLKIQAYFNETADLPCQFANSQNQSLSELVVFWQDQENLVLNEVYLGKEKFDSVHSKYMGRTSFDSDSWTLRLHNLQIKDKGLYQCIIHHKKPTGMIRIHQMNSELSVLANFSQPEIVPISNITENVYINLTCSSIHGYPEPKKMSVLLRTKNSTIEYDGVMQKSQDNVTELYDVSISLSVSFPDVTSNMTIFCILETDKTRLLSSPFSIELEDPQPPPDHIPWITAVLPTVIICVMVFCLILWKWKKKKRPRNSYKCGTNTMEREESEQTKKREKIHIPERSDEAQRVFKSSKTSSCDKSDTCF
notes: full length, on the cell surface
B3: KIR2DL3 (receptor, UniProt P43628 22-341, looked up)
chain: HEGVHRKPSLLAHPGPLVKSEETVILQCWSDVRFQHFLLHREGKFKDTLHLIGEHHDGVSKANFSIGPMMQDLAGTYRCYGSVTHSPYQLSAPSDPLDIVITGLYEKPSLSAQPGPTVLAGESVTLSCSSRSSYDMYHLSREGEAHERRFSAGPKVNGTFQADFPLGPATHGGTYRCFGSFRDSPYEWSNSSDPLLVSVTGNPSNSWPSPTEPSSETGNPRHLHVLIGTSVVIILFILLLFFLLHRWCCNKKNAVVMDQEPAGNRTVNREDSDEQDPQEVTYAQLNHCVFTQRKITRPSQRPKTPPTDIIVYTELPNAEP
notes: whole, on cells
B4: KIR2DS5 (receptor, UniProt Q14953 22-304, looked up)
chain: HEGFRRKPSLLAHPGPLVKSEETVILQCWSDVMFEHFLLHREGTFNHTLRLIGEHIDGVSKGNFSIGRMTQDLAGTYRCYGSVTHSPYQLSAPSDPLDIVITGLYEKPSLSAQPGPTVLAGESVTLSCSSRSSYDMYHLSREGEAHERRLPAGPKVNRTFQADFPLDPATHGGTYRCFGSFRDSPYEWSKSSDPLLVSVTGNSSNSWPSPTEPSSETGNPRHLHVLIGTSVVKLPFTILLFFLLHRWCSNKKNASVMDQGPAGNRTVNREDSDEQDHQEVSYA
notes: whole, on cells
B5: PD-1 EH13.2A11.17.1 human IgG4 (S228P) (antibody, V domains shown)
VH: EVKLVESGGGLVQPGGSLKLSCAASGFTFSSFTLSWVRQTPEKRLEWVAYISYGGADTYYPDTVKGRFTIFRDNAKNTLYLQMSSLKSEDTARYYCARHGPYGKGDYYAMDYWGQGTSVTVSS
VL: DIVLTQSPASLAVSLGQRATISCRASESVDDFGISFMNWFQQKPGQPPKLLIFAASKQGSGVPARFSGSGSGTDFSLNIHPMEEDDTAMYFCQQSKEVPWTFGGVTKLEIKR
notes: Chimeric: mouse EH13 variable domains on human IgG4 (S228P) and human kappa (Km3); The printed word SignalPeptide_ is a placeholder and is left out; also called LP PD-1 mAb (TP-31850); PD-1 mAb EH13 human IgG4
B6: PD-1 mAb EH13.2A11.17.1 (antibody, V domains shown)
VH: B5 VH
VL: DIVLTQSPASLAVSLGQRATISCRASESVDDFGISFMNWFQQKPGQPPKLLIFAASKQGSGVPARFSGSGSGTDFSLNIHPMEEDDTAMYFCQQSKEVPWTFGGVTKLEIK
notes: Parental mouse hybridoma antibody; also called parental control hybridoma
B7: KIR2DS1 (receptor, UniProt Q14954 22-304, looked up)
chain: HEGVHRKPSLLAHPGRLVKSEETVILQCWSDVMFEHFLLHREGMFNDTLRLIGEHHDGVSKANFSISRMKQDLAGTYRCYGSVTHSPYQLSAPSDPLDIVIIGLYEKPSLSAQPGPTVLAGENVTLSCSSRSSYDMYHLSREGEAHERRLPAGTKVNGTFQANFPLGPATHGGTYRCFGSFRDSPYEWSKSSDPLLVSVTGNPSNSWPSPTEPSSETGNPRHLHVLIGTSVVKIPFTILLFFLLHRWCSDKKNAAVMDQEPAGNRTVNSEDSDEQDHQEVSYA
notes: whole, on cells
B8: KIR3DL3 mAb 574.2.2F11.2.7.4 human IgG4 (S228P) (antibody, V domains shown)
VH: DVQLVESGGGLVQPGGSRKLSCAASGFTFSYFGMHWVRRAPEKGLEWVAFISSDSTTIYYTDTVKGRFTISRDNPKNTLFLQMTSLRSEDTAIYYCARFYDGAMDYWGQGTSVTVST
VL: DIVMTQSQKFMSTSVGDRVSITCKASQSVRTAVAWYQQKPGQSPKVLIYLASNRHTGVPDRFTGSGSGTDFTLTISNVQSEDLADYFCLQHWNYPLTFGAGTKLELKR
notes: Chimeric: mouse 2F11 variable domains on human IgG4 (S228P) and human kappa (Km3); Signal peptide placeholder left out; also called LP KIR3DL3 mAb (TP-31851); KIR3DL3 mAb 2F11 human IgG4
B9: KIR2DS3 (receptor, UniProt Q14952 22-304, looked up)
chain: HEGFRRKPSLLAHPGRLVKSEETVILQCWSDVMFEHFLLHREGTFNDTLRLIGEHIDGVSKANFSIGRMRQDLAGTYRCYGSVPHSPYQFSAPSDPLDIVITGLYEKPSLSAQPGPTVLAGESVTLSCSSWSSYDMYHLSTEGEAHERRFSAGPKVNGTFQADFPLGPATQGGTYRCFGSFHDSPYEWSKSSDPLLVSVTGNPSNSWPSPTEPSSKTGNPRHLHVLIGTSVVKLPFTILLFFLLHRWCSDKKNASVMDQGPAGNRTVNREDSDEQDHQEVSYA
notes: whole, on cells
B10: KIR2DS2 (receptor, UniProt P43631 22-304, looked up)
chain: HEGVHRKPSLLAHPGPLVKSEETVILQCWSDVRFEHFLLHREGKYKDTLHLIGEHHDGVSKANFSIGPMMQDLAGTYRCYGSVTHSPYQLSAPSDPLDIVITGLYEKPSLSAQPGPTVLAGESVTLSCSSRSSYDMYHLSREGEAHERRFSAGPKVNGTFQADFPLGPATHGGTYRCFGSFRDSPYEWSNSSDPLLVSVTGNPSNSWPSPTEPSSKTGNPRHLHVLIGTSVVKIPFTILLFFLLHRWCSNKKNAAVMDQEPAGNRTVNSEDSDEQDHQEVSYA
notes: whole, on cells

How the values were obtained:
KIR2DL3 = biological target: B3; assay: HEK293 cell microarray
Protocol: (§1) Replicate microarray slides expressing a complete KIR family cDNA panel were fixed and blocked with buffer containing PBS/0.5% BSA and incubated for 1 hour at room temperature with individual KIR3DL3 mAb hybridoma supernatants at 1:5, 1:25 and 1:250 dilutions in PBS/0.1% BSA. Cell arrays were washed with PBS and incubated for 1 hour at room temperature in PBS/0.1% BSA containing AF647-conjugated goat anti-mouse IgG (H+L) (Life Technologies, A21235). Slides were washed with PBS, dried, and imaged for ZsGreen1 and AF647 fluorescence.
as §1, with “In Table 4, replicate” for “Replicate”, “the” for “a complete”, “panel (as in FIG. 1A, FIG. 2B, and FIG. 2C)” for “panel”

KIR2DL2 = biological target: T2, KIR2DL2 (UniProt P43627 22-348, limits assumed); assay: HEK293 cell microarray
T2 construct: whole, on cells
T2 sequence (P43627 22-348 limits assumed): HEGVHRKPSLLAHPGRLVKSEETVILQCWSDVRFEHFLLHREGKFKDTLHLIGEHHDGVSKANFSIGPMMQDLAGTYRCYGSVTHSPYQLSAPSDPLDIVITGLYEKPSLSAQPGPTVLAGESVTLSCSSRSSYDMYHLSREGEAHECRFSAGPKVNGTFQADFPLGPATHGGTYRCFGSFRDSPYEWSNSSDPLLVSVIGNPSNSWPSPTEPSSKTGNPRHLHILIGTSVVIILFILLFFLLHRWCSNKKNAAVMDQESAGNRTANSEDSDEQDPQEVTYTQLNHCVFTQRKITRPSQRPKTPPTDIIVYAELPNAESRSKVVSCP
Protocol: as §1
as §1, with “In Table 4, replicate” for “Replicate”, “the” for “a complete”, “panel (as in FIG. 1A, FIG. 2B, and FIG. 2C)” for “panel”

KIR3DL2 = biological target: T3, KIR3DL2 (UniProt P43630 22-455, limits assumed); assay: HEK293 cell microarray
T3 construct: whole, on cells
T3 sequence (P43630 22-455 limits assumed): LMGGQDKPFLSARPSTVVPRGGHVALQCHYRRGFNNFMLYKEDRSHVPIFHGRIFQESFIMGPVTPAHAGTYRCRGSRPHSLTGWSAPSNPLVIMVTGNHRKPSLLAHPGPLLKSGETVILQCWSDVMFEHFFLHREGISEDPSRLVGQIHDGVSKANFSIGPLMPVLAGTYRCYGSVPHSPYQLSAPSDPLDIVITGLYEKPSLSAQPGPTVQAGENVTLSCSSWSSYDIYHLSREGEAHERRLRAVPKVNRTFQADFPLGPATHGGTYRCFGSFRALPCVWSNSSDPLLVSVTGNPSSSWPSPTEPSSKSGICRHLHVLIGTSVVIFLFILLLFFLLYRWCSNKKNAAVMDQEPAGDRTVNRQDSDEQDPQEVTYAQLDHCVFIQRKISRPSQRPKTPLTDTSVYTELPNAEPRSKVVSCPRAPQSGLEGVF
Protocol: as §1
as §1, with “In Table 4, replicate” for “Replicate”, “the” for “a complete”, “panel (as in FIG. 1A, FIG. 2B, and FIG. 2C)” for “panel”

KIR3DS1 = biological target: T4, KIR3DS1 (UniProt Q14943 22-382, limits assumed); assay: HEK293 cell microarray
T4 construct: whole, on cells
T4 sequence (Q14943 22-382 limits assumed): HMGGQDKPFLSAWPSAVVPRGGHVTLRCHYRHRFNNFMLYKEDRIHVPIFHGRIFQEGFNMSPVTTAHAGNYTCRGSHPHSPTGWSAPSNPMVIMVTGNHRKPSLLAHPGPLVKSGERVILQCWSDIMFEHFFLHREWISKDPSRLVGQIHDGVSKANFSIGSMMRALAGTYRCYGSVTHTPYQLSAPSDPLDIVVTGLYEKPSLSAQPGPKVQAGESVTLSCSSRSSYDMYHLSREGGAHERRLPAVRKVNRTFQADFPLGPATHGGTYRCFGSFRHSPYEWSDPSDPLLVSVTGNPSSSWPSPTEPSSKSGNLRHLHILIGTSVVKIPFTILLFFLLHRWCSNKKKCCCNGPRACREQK
Protocol: as §1
as §1, with “In Table 4, replicate” for “Replicate”, “the” for “a complete”, “panel (as in FIG. 1A, FIG. 2B, and FIG. 2C)” for “panel”

KIR2DS5 = biological target: B4; assay: HEK293 cell microarray
Protocol: as §1
as §1, with “In Table 4, replicate” for “Replicate”, “the” for “a complete”, “panel (as in FIG. 1A, FIG. 2B, and FIG. 2C)” for “panel”

KIR2DS3 = biological target: B9; assay: HEK293 cell microarray
Protocol: as §1
as §1, with “In Table 4, replicate” for “Replicate”, “the” for “a complete”, “panel (as in FIG. 1A, FIG. 2B, and FIG. 2C)” for “panel”

KIR3DL1 = biological target: T5, KIR3DL1 (UniProt P43629 22-444, limits assumed); assay: HEK293 cell microarray
T5 construct: whole, on cells
T5 sequence (P43629 22-444 limits assumed): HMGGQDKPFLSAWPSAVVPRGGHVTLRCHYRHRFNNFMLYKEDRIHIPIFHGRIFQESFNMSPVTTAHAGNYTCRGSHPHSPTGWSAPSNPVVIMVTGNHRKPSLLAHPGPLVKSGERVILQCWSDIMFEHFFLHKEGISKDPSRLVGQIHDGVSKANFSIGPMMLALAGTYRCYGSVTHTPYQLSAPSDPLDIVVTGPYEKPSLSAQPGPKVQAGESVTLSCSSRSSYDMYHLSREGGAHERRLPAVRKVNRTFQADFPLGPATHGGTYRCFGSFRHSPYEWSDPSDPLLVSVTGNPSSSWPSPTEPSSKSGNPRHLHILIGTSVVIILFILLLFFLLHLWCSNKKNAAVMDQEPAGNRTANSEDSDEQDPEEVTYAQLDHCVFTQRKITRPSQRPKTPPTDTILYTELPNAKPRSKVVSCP
Protocol: as §1
as §1, with “In Table 4, replicate” for “Replicate”, “the” for “a complete”, “panel (as in FIG. 1A, FIG. 2B, and FIG. 2C)” for “panel”

KIR2DS2 = biological target: B10; assay: HEK293 cell microarray
Protocol: as §1
as §1, with “In Table 4, replicate” for “Replicate”, “the” for “a complete”, “panel (as in FIG. 1A, FIG. 2B, and FIG. 2C)” for “panel”

KIR2DS1 = biological target: B7; assay: HEK293 cell microarray
Protocol: as §1
as §1, with “In Table 4, replicate” for “Replicate”, “the” for “a complete”, “panel (as in FIG. 1A, FIG. 2B, and FIG. 2C)” for “panel”

KIR2DL1 = biological target: T6, KIR2DL1 (UniProt P43626 22-348, limits assumed); assay: HEK293 cell microarray
T6 construct: whole, on cells
T6 sequence (P43626 22-348 limits assumed): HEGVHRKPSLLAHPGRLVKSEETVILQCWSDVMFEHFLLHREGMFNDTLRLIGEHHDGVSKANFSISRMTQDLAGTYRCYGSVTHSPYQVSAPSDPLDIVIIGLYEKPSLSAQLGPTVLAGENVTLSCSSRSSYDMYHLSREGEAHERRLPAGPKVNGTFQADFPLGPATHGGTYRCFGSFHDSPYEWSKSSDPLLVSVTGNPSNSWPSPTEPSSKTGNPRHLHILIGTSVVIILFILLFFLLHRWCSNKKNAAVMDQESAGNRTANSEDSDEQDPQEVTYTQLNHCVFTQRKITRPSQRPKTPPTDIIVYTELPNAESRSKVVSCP
Protocol: as §1
as §1, with “In Table 4, replicate” for “Replicate”, “the” for “a complete”, “panel (as in FIG. 1A, FIG. 2B, and FIG. 2C)” for “panel”

KIR2DL4 = biological target: T7, KIR2DL4 (UniProt Q99706 22-377, limits assumed); assay: HEK293 cell microarray
T7 construct: whole, on cells
T7 sequence (Q99706 22-377 limits assumed): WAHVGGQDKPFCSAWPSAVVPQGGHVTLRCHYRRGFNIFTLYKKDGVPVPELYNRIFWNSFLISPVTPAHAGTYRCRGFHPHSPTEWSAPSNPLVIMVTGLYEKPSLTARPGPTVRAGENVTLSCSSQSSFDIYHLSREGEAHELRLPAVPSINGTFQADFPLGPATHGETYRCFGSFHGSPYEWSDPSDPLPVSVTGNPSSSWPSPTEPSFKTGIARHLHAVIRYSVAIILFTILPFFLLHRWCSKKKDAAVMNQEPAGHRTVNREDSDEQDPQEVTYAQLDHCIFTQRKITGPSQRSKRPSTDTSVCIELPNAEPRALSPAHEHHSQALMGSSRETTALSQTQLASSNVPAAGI
Protocol: as §1
as §1, with “In Table 4, replicate” for “Replicate”, “the” for “a complete”, “panel (as in FIG. 1A, FIG. 2B, and FIG. 2C)” for “panel”

[1] = biological target: T1, Human HHLA2-mIgG2a fusion protein; assay: cell microarray on transfected HEK293 cells, HHLA2-mIgG2a probe, AF647 anti-mouse IgG detection
Protocol: A library of ˜5500 full length cDNA clones covering more than 3,500 different plasma membrane proteins was arrayed in duplicate across 13 microarray slides (“slide sets”). Human HEK293 cells were grown above the cDNA clones and reverse-transfected. An expression vector (pIRES-hEGFR-IRES-ZsGreen1) was spotted in quadruplicate on every slide and was used to ensure that a minimal threshold of transfection efficiency had been achieved or exceeded on every slide.
Two replicate slides were screened for each of the 13 slide sets. Fluorescent images were analyzed and quantitated (for transfection efficiency) using ImageQuant software (GE). A protein ‘hit’ was defined as duplicate spots showing a raised signal compared to background levels. This was achieved by visual inspection using the images gridded on the ImageQuant software.

[2] = biological target: T8, Human PD1, Sino Biological Cat #: HPLC-10377-H08H (human, UniProt Q15116 25-167); assay: BLI (Octet RED96), antibody captured on the sensor, antigen in solution, 1:1 model
T8 construct: Bought; also called PD-1 (Octet antigen)
T8 sequence (Q15116 25-167 limits assumed): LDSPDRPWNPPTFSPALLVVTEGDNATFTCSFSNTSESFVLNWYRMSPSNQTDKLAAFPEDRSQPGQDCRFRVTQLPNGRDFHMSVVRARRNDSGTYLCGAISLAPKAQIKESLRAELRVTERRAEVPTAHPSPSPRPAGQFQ
Protocol: (§2) Binding experiments were performed on Octat Red af 25″° C. The human antibodies were loaded onto Anti-higG Fe Capture biosensors and the mouse antibodies were loaded onto Anti-migG Fe Capture biosensors both for 300 seconds. The ligand loaded sensors were dipped into a 3-fold series dilution (starting at 300 nad) of the antigens (PD-1 and KIR3DL3) for 240 seconds followed by dissociation for 400 seconds. Kinetic constanta were calculated using a monovalent (1:1) binding model Antigen: Haman PD1, Sino Biological Cat #: HPLC-10377-HOSH.

[3] = biological target: T9, Human KIR3DL3, Sino Biological Cat#: 16055-H08H (human, UniProt Q8N743 26-322); assay: as above
T9 construct: Bought soluble antigen; also called KIR3DL3 (Octet antigen)
T9 sequence (Q8N743 other isoform, or with tags, fused parts or gaps H08H H08H limits assumed): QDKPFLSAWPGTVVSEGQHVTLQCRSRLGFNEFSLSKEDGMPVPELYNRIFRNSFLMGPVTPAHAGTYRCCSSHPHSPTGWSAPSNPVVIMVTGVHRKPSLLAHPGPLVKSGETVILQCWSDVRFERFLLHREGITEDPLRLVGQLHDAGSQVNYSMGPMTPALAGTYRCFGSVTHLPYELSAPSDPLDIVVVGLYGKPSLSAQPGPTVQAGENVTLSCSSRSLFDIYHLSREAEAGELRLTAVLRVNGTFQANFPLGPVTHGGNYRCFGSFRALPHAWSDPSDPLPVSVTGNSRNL
Protocol: as §2

Binder: B1
binding result (KIR2DL3): no binding (tested: supernatant 1:5, 1:25, 1:250)
binding result (KIR2DL2): no binding (tested: supernatant 1:5, 1:25, 1:250)
binding result (KIR3DL2): no binding (tested: supernatant 1:5, 1:25, 1:250)
binding result (KIR3DS1): no binding (tested: supernatant 1:5, 1:25, 1:250)
binding result (KIR2DS5): no binding (tested: supernatant 1:5, 1:25, 1:250)
binding result (KIR2DS3): no binding (tested: supernatant 1:5, 1:25, 1:250)
binding result (KIR3DL1): no binding (tested: supernatant 1:5, 1:25, 1:250)
binding result (KIR2DS2): no binding (tested: supernatant 1:5, 1:25, 1:250)
binding result (KIR2DS1): no binding (tested: supernatant 1:5, 1:25, 1:250)
binding result (KIR2DL1): no binding (tested: supernatant 1:5, 1:25, 1:250)
binding result (KIR2DL4): no binding (tested: supernatant 1:5, 1:25, 1:250)

Binder: B2
binding result [1]: no binding (tested: 20 ug/ml)

Binder: B3
binding result [1]: no binding (tested: 20 ug/ml)

Binder: B4
binding result [1]: no binding (tested: 20 ug/ml)

Binder: B5
Kd [2]: 6.88 nM
koff [2]: 0.00137 s⁻¹
kon [2]: 199000 M⁻¹ s⁻¹

Binder: B6
Kd [2]: 7.1 nM
koff [2]: 0.00154 s⁻¹
kon [2]: 216000 M⁻¹ s⁻¹

Binder: B7
binding result [1]: no binding (tested: 20 ug/ml)

Binder: B8
Kd [3]: 0.289 nM
koff [3]: 7.19e-05 s⁻¹
kon [3]: 248000 M⁻¹ s⁻¹

Binder: B9
binding result [1]: no binding (tested: 20 ug/ml)

Binder: B10
binding result [1]: no binding (tested: 20 ug/ml)
